How the values were obtained:
[1] = molecular target: recombinant human VEGFR2 protein (Octet) (Homo sapiens, UniProt P35968); test: BLI
[2] = molecular target: VEGFR2 on VEGFR2 overexpressing 293FT cells (Homo sapiens (assumed), UniProt P35968); test: cell-based or functional assay
[3] = molecular target: recombinant rhesus macaque VEGFR2‐His protein (Macaca mulatta, UniProt F7E313); test: ELISA

Chain of VEGFR2 on VEGFR2 overexpressing 293FT cells (P35968 20-1356): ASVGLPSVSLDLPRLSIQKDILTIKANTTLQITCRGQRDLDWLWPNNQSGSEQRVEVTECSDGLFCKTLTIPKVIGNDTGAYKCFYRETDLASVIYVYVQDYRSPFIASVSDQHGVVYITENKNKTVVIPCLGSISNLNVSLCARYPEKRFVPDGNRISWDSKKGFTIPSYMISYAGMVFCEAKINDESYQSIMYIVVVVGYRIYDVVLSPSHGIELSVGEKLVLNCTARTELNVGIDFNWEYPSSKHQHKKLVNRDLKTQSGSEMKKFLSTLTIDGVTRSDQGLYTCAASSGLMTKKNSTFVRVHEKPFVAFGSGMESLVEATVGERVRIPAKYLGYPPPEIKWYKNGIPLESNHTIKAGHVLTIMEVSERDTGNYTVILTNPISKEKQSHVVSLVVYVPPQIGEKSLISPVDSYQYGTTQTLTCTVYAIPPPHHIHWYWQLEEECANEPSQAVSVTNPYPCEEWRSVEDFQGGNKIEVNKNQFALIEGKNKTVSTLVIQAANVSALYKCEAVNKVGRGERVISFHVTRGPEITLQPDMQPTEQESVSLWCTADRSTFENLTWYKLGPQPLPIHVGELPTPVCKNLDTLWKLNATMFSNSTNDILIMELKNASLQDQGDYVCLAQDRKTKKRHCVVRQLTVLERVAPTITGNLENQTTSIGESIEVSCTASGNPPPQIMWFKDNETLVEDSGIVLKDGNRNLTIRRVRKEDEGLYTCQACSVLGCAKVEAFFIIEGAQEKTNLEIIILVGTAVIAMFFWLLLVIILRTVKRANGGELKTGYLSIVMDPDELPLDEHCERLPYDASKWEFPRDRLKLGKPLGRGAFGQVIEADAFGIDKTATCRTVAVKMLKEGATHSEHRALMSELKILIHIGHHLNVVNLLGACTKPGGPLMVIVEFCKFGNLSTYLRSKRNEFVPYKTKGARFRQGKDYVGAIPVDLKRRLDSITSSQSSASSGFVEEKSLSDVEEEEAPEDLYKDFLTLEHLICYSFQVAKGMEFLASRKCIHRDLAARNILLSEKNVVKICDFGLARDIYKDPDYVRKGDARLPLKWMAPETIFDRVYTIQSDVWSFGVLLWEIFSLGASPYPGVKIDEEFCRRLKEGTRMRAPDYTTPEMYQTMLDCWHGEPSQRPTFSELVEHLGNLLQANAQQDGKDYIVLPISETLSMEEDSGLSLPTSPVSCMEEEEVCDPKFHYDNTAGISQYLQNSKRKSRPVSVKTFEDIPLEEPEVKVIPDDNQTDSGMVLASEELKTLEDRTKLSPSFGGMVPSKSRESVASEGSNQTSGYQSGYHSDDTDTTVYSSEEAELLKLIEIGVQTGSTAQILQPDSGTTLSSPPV
Chain of recombinant human VEGFR2 protein (Octet) (P35968 20-1356): as above

Kd [1]: 0.0458 nM
EC50 of neutralisation of HUVEC proliferation induced by human VEGF-C [2]: 0.0874 µg/mL
EC50 of neutralisation of HUVEC proliferation induced by human VEGF-C+VEGF-D [2]: 0.086 µg/mL
binding result [3]: binds
B1: ramucirumab (antibody, V domains shown)
VH: EVQLVQSGGGLVKPGGSLRLSCAASGFTFSSYSMNWVRQAPGKGLEWVSSISSSSSYIYYADSVKGRFTISRDNAKNSLYLQMNSLRAEDTAVYYCARVTDAFDIWGQGTMVTVSS
VL: DIQMTQSPSSVSASIGDRVTITCRASQGIDNWLGWYQQKPGKAPKLLIYDASNLDTGVPSRFSGSGSGTYFTLTISSLQAEDFAVYFCQQAKAFPPTFGGGTKVDIK
